{"source": "patent US20170107569", "about": "“METHOD FOR ATTACHING ONE OR MORE POLYNUCLEOTIDE BINDING PROTEINS TO A TARGET POLYNUCLEOTIDE” (Oxford Nanopore Technologies Ltd., published 2017)", "key": {"[1]": {"biological_target": "T1, T4 Dda-E94C/C109A/C136A/A360C helicase (UniProt P32270 SEQ:1-439, E94C/C109A/C136A/A360C)", "T1 sequence": "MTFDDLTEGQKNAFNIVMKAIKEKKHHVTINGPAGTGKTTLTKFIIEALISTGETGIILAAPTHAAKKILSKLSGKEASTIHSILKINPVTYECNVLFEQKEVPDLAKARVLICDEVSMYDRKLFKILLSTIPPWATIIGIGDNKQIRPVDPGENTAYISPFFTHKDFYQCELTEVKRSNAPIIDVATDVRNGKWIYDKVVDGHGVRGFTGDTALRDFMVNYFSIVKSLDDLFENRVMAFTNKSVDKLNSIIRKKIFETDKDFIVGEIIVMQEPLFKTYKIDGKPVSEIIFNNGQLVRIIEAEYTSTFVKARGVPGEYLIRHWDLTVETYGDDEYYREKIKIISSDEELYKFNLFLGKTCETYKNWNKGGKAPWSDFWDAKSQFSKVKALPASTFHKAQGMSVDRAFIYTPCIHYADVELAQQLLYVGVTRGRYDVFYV", "test": "EMSA; native TBE PAGE; 50 mM HEPES, 100 mM KOAc pH 8, 1 mM EDTA, 100 uM TMAD; 2:1 and 1:1 complexes, single enzyme after KCl/ATP and SPRI", "conditions": "tags: closed with TMAD; Y-adapter, partly double-stranded", "experimental": "T4 Dda—E94C/C109A/C136A/A360C (3 μM, SEQ ID NO: 24 with mutations E94C/C109A/C136A/A360C) and DNA Y-adapter (500 nM, SEQ ID NO: 26 was hybridised to DNA strand X=30 iSpC3 spacers attached at the 3′ end to the 5′ end SEQ ID NO: 27 which is attached at the 3′ end to 4 iSp18 spacers which are attached at the opposite end to the 5′ end of SEQ ID NO: 28) were mixed in buffer (50 mM HEPES, 100 mM KOAc (pH 8) and EDTA (1 mM) and TMAD (100 μM) were added and incubated for 60 minutes at room temperature. The mixture was then diluted 1:1 in KCl/ATP solution (500 mM KCl, 1 mM ATP final) and incubated at ambient temperature for 25 mins, this mixture was known as sample 3.\nThe resultant enzyme bound to DNA was then analysed using a TBE PAGE gel as described previously in Example 1 except the gel was run for 45 mins."}, "[2]": {"biological_target": "T1, T4 Dda-E94C/C109A/C136A/A360C helicase", "test": "EMSA; native TBE PAGE, band C", "conditions": "tags: closed with TMAD; Y-adapter, partly double-stranded", "experimental": "Each sample run on the gel was 400 nM (5 μL). Lane 1 corresponded to a 100 bp ladder (the number of base pairs that the bands correspond to is shown along the side of the gel). Lane 2 corresponded to helicase leader complex shown in FIG. 12A, without the helicase bound. Lane 3 corresponded to the helicase leader complex shown in FIG. 12A with the helicase bound. Lane 4 corresponded to the polymerase strand complex shown in FIG. 12B without the polymerase bound. Lane 5 corresponded to the polymerase strand complex shown in FIG. 12B with the polymerase bound. Band A corresponded to SEQ ID NO: 43. Band B corresponded to DNA strand X=30 iSpC3 spacers attached at the 3′ end to the 5′ end SEQ ID NO: 27 which is attached at the 3′ end to 4 iSp18 spacers which are attached at the opposite end to the 5′ end of SEQ ID NO: 28. Band C corresponded to the helicase (T4 Dda—E94C/C109A/C136A/A360C) bound to DNA strand X. Band D corresponded to the polymerase strand complex without the enzyme bound (SEQ ID NO: 44 which was attached at its 3′ end to four iSpC3 spacers which were attached at the opposite end to the 5′ end of SEQ ID NO: 45). Band E corresponded to Phi29-A411C/Q560C bound to the polymerase strand complex.\nThe helicase-leader complex (diagram shown in FIG. 12 section A) was prepared as described in Example 2, except SEQ ID NO: 26 is replaced with SEQ ID NO: 43."}}}
{"binder": "DNA Y-adapter (Example 2) (mixed, 30 iSpC3 at 5' end of SEQ 27; 4 iSp18 between SEQ 27 and SEQ 28; 5' phosphate on SEQ 26) DNA 1: TTTTTTTTTTTTGGTTGTTTCTGTTGGTGCTGATATTGCGGCGTCTGCTTGGGTGTTTAACCT DNA 2: GGTTAAACACCCAAGCAGACGCCGCAATATCAGCACCAACAGAAACAACCTTTGAGGCGAGCGGTCAA", "values": [{"measurement": "binding result", "setting": "[1]", "value": "binds"}]}
{"binder": "helicase-leader Y-adapter (Example 7) (mixed, 30 iSpC3 at 5' end of SEQ 27; 4 iSp18 between SEQ 27 and SEQ 28) DNA 1: TTTTTTTTTTTTGGTTGTTTCTGTTGGTGCTGATATTGCGGCGTCTGCTTGGGTGTTTAACCT DNA 2: GCAATATCAGCACCAACAGAAACAACCTTTGAGGCGAGCGGTCAA", "values": [{"measurement": "binding result", "setting": "[2]", "value": "binds"}]}
